In patent publication US6670114 (N V INNOGENETICS, dated 2003):

Molecular target: T1, LDL (purified human low-density lipoprotein, Cappel) (human, UniProt P04114 28-4563)
T1 construct: This is a lipoprotein particle, not a single protein; also called solid phase LDL
Assay: ELISA: biotinylated envelope protein on coated LDL, streptavidin-peroxidase

B1: E2s (recombinant truncated HCV envelope protein E2, aa 384-673, genotype 1b) (other)
chain: HTRVSGGAAASNTRGLVSLFSPGSAQKIQLVNTNGSWHINRTALNCNDSLQTGFFAALFYKHKFNSSGCPERLASCRSIDKFAQGWGPLTYTEPNSSDQRPYCWHYAPRPCGIVPASQVCGPVYCFTPSPVVVGTTDRFGVPTYNWGANDSDVLILNNTRPPRGNWFGCTWMNGTGFTKTCGGPPCNIGGAGNNTLTCPTDCFRKHPEATYARCGSGPWLTPRCMVHYPYRLWHYPCTVNFTIFKVRMYVGGVEHRFGAACNWTRGERCDLEDRDRSELSPLLLSTTEWQ
modifications: biotinylated (sites not given)
notes: also called biotinylated E2
B1: no binding.
